Target: T1, PTP1B under reducing condition (Homo sapiens, UniProt P18031)
T1 construct: made in house; host or cells: E. coli BL21 (pET19b)
T1 sequence (P18031 3-277 limits assumed): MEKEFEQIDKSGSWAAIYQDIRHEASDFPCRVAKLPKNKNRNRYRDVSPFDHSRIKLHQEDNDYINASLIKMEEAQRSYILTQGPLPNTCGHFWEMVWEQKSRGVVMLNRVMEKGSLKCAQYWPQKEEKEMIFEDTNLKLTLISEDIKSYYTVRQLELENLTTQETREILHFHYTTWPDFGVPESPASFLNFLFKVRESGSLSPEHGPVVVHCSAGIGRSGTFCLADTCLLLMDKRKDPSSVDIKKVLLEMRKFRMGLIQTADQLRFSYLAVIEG
Experiment: In vitro binding assay, purified recombinant PTP1B (37 kDa) and purified scFv, Ni-NTA pull down, reducing condition
Details: with 2 mM TCEP; FIG. 9
Procedure: They established conditions in which PTP1B is reversibly oxidized by H2O2 in solution (FIG. 8). An artificial protein substrate RCML, in which tyrosine was phosphorylated with ^32P using recombinant GST-FER kinase was used in this assay to measure the phosphatase activity. Recombinant PTP (37 kDa) was incubated with increasing concentration (50 μM to 100 mM) of H2O2. A quick buffer exchange was done to remove the H2O2 and reducing agent (TCEP) was added to reactivate the enzyme.
In the in vitro binding assay, purified PTP was reversibly oxidized with […] followed by a quick buffer exchange to remove H2O2 (FIG. 8). Purified scFv was incubated in molar excess with PTP1B-OX or with PTP under reducing condition (with 2 mM TCEP) in binding buffer (20 mM HEPES, pH 7.4, 300 mM NaCl, 0.05% BSA, 0.05% Tween-20 and 10 mM imidazole) for 2 hours at 4° C. Ni-NTA agarose was added and incubated for one hour at 4° C. Protein complex bound to Ni-NTA agarose beads was pulled down and washed (three times, 5 minutes each, at 4° C.) with binding buffer containing 20 mM imidazole to reduce non-specific binding to the beads. The protein complex was eluted from the Ni-NTA agarose beads with 500 mM imidazole (in binding buffer, pH 7.4) for 15 minutes at 4° C. with gentle shaking. The complex was separated by SDS-PAGE and PTP1B was detected with anti-PTP1B antibody (FG6) and scFv was detected with anti-HA antibody [anti-HA (3F10)-HRP, Roche] by immunoblotting. Eight different scFvs (scFvs 20, 21, 24, 28, 45, 48, 57, and 105), expressed and purified from bacterial cultures were tested by this in vitro binding experiment.

B1: scFv45: conformation-sensor scFv binding PTP1B-OX, SEQ ID NO: 26 and 78; expressed as intrabody (protein)
scFv: MKKTAIAIAVALAGFATVAQAALTQPSSVSANPGGTVKITCSGSSSAYGYGWYQQKSPGSAPVTVIYNNNKRPSNIPSRFSGSKSGSTGTLTITGVQAEDEAVYFCGSEDSSTDAIFGAGTTLTVLGQSSRSSTVTLDESGGGLQAPGGALSLVCKASGFTFSSYDMGWIRQAPGKGLEYVAGITDNGRYASYGSAVDGRATISRDNGQSSVRLQLNNLRAEDTGTYYCARDDGSGWTGNSIDAWGHGTEVIVSSTSGQAGQHHHHHHGAYPYDVPDYAS
How did the “binding to PTP1B under reducing condition in vitro” value turn out when B1 was run?
Its value is “not to PTP under reducing condition”.

B2: scFv57: scFv binding PTP1B-OX, SEQ ID NO: 27 and 90 (protein)
scFv: MKKTAIAIAVALAGFATVAQAALTQPSSVSANPGAFNKITCSGSSSAYGYGWNQQKSPGSAPVTVIYNNNKRPSNIPSRFSGSKSGSTGTLTITGDQDEDEDFYFCGSEYSSTDAIFGAGTTLTVLGQSSRSSTVTLDESGGGLQAPGGALSLVCKASGFTFSSYDMGWIPQAPGKGLEYVAGITDNGIYASYGSAVDGRATISRDNRQSSVKLQLNNLKADDTGTYYCARDDGSGWTGNSIDAWGHGTEVIVSSTSGQAGQHHHHHHGAYPYDVPDYAS
B2 was tested. Which “binding to PTP1B under reducing condition in vitro” value did it give?
Its value is “not to PTP under reducing condition”.
